Experimental findings from the DeepSol protein solubility set are described below.

The series is described as follows: soluble on expression in E. coli; label from the status in PepcDB or PDB records.
As for “MSLTWKHYLSAWQNADLSNEWRRELQRVEEEQERFDGYLTFGTGGMRGKMGIGTKRINLFTIRRVAKGLGDYVVANEGAEMGVAIAFDSRHHSGAFAQETAKVLAAQGINVYLSDSIRPTPALSFCVREKGAFAGVVITASHNPSIYNGFKVYDKNGCQITLGVAQEIAGYLEKITDIFTIPVRELPNPLVTPLGKEMDDAYLNALTAVVSRPDLLADYGNELRICYTPLHGAGKELVMRGLLENGFSETTIIAEQSEPDGDFPTVISPNPEEENSFDLAKKLAKEIQADIILATDPDADRLGVAVLNKQATYQILTGNQLGALLLNYILEAKTPVTGADTMINTIVTGDLGGKIAYDFGINHIQTLTGFKFIGEKIAEMEGTEKNFLFGYEESYGYLIAPFVRDKDAVQAALLTAEMALFYKKEGTTLLGKLTNLFEKFGYHKEYLHTITLDDSDGITKMIQVIDALRKEPIFMPEITVVEDFLTSKRTNFVTMEVTNIELPKENVLKFYLMDSSWFAIRPSGTEPKCKIYFQTSGETEEIATKAMNELRKRVLAVWDEGHHHHHH”, the “soluble on expression in E. coli” value was “soluble”. Turning to “MPSSKTSARRAPSSPGASLWSLPLIRKLCCAPGCEELAPAGQAHCADHAAEAEARARSRKARAKAGAAAQAGAAFYATGRWRRARARFLAAHPLCADCAGLGLVVAAAEVDHIRPHRGDPGLMWDRANWQPLCRPCHSRKTAREVFHPPGGIAKSEGSARLEHHHHHH”, the “soluble on expression in E. coli” value is reported as “not soluble”.

Consider “MQNIHQHNYVISLKTADARRQHIIQEFAKHNIPFQFFDACSIENNLYMDIEKHLPMLLNSKLSNSEKGCLMSHFLLWKKCVLDDIPYMTIFEDDIILSDESNEFISDYSWVNNRFYEQKEILIKFETFLMPVIRKFTKINEYKERAFNQLISRHFGTASYLISKEAAKYLILLYEKLPADELIAVDESIFNVLLNDKNLCVYQLEPAICVQELQFNKENSLLISQIEEDRYKNQKQNKPRKTLKQRIIKVCYNINRIFKKIKKTKLSDEKDINSDIVKFKLEHHHHHH”, for which the “soluble on expression in E. coli” value is “not soluble”.

Turning to “MAHHHHHHMPGPGLLPDGWFREESTMWPGQAQGLKVEKVLYDQPTEFQHLTVFESDPSGPWGTVMTLDGAIQLTDYDEFVYHEMLANLSLACHHKPERVLVIGGGDGGVVREVLRHKSEKDGVVQSVELVDIDGAVMQQSKKHFPQVACGFANPCVTATVGDGAAFVRNVPDSVYDVIIIDTTDPKGPASELFGADFYTNVLRILRPGGVVCNQGESVWLHRPLIEKMMGFLKKDIGFATVKYAMIYIPTYPCGSIGTLVCAKSADTDVTVPMRPVESLGFADQLKYYSSDMHKAAFVLPRFAAHLNE”, the “soluble on expression in E. coli” value is reported as “soluble”.

For “QRWSLPSLDPFGDRETAIETVGETVETSIDAVDTDSLAIAFSGGVDSALLAARLDAPLYVAGFPDSHDIEAARSAAELLGTEVRVVELTHDAIERAVPEIARATARTNAMDVQIALPLYLVAERVAGDGFDRLALGQGADELFGGYAKVAKAPEDPRVEADTVRGAQREVIASLPDQLERDVLALRAAGVEPVTPLLHDRVIGAALRLDGDLLVDGETRKVALRAAARESLPDEIADRDKKAAQYGSLAARELDRLARQAGYKRRMDDHVTQYVESLVE”, the “soluble on expression in E. coli” value is reported as “not soluble”. As for “MGAVSAFSWASSGRLHALEVFVMKIPKTYDEIMEHFGGLIDEVTAELLESYAKGETVRVSEALAKSGRVAVEGVVLRVFPVRHFSKNGRSGKVGSVVIQDDCTVRVNFWNEAAEIIEAGDIVEGARIKVRGYARGEEIHVNSLSEVEVFVDFVNISELDEKVGERVNVKGFVSGLGEPEKANEIYISDETGRVKVLLENESLYYAVDIGSYVEIYNALAGEDGIYVDRNSRFSVGELEHHHHHH”, the entry is “not soluble”. The value for “MSLITHISPLGSMDMLSQLEVDMLKRTASSDLYQLFRNCSLAVLNSGSLTDNSKELLSRFENFDINVLRRERGVKLELINPPEEAFVDGRIIRALQANLFAVLRDILFVYGQIHNTVRFPNLNLDNSVHITNLVFSILRNARALHVGEAPNMVVCWGGHSINENEYLYARRVGNQLGLRELNICTGCGPGAMEAPMKGAAVGHAQQRYKDSRFIGMTEPSIIAAEPPNPLVNELIIMPDIEKRLEAFVRIAHGIIIFPGGVGTAEELLYLLGILMNPANKDQVLPLILTGPKESADYFRVLDEFVVHTLGENARRHYRIIIDDAAEVARQMKKSMPLVKENRRDTGDAYSFNWSMRIAPDLQMPFEPSHENMANLKLYPDQPVEVLAADLRRAFSGIVAGNVKEVGIRAIEEFGPYKINGDKEIMRRMDDLLQGFVAQHRMKLPGSAYIPCYEICTEGHHHHHH” was “soluble”; that for “MNIDVEFHIRHNYPWNKLPANVRQSLGNSQREYEKQVVLYSIRNQLRYRNNLVKHVKKDERRYYEELLKYSRDHLMLYPYHLSDIVCYVCL” was “not soluble”. As for “MAHHHHHHMELLNQENDGFLEDMSDSINKQIKELENVPSKDIIRNIWFKVHCNERNKFHSLIYSIRKIHDKYFSDTNKNEELGKKVWNKCCAIITEELLKLDSIQNSQFHNLMQQETVTLQEFEDFVKFSVNGYKNTKKETKKICIKKLKKALNQRL”, the entry is “soluble”; as for “MGSDKIHHHHHHMTYINAQGRLKGCKPIAVIDIGSNSVRLVIYEGLVRSPTVLFNEKILCGLGQGVAKTGLLEENSMNMALRTLKRFRALCLQIGADEIYILATAAAREAKNGLAFIQNAENILQNKIYLLSGSEEAVYSAYGVISTFYQPKGISGDLGGGSLELIDIDNSEVGEGITLPLGGLRLQYMSNNDIAVAAKIAQEQFGKSAVVHKSMARCFYAVGGTWRNLAKLHMATKHYRLPVMHGYEVDAVEMEDFLRFVVNGSIENMKGISAVSKNRRQLLSYGAIILIELIRCVGFEKIIFSGAGVREGFLYSRLPQEVRVSDPLIAACTEMAILRARSPKQAEELIDFTTNAFEVFGILETENECRYRKAACLLADIGWRIHPDYRGNEAANQIALGSYPGISHEGRAYAALAVFFRNTGSLIGEESLPIFQLASKDVIEKARILGEIMRIAHLFSASTTGVLPHLSWHKKIDHVVLHIPARYADLLGERPLSRLKKLSKIIELPLAFEIF”, “not soluble”.

Regarding “MEYGCQPNVLKKTILKMVKRRIHVEGAKKAVNEALLNSQAKAAEEICRIAYESPGGVVFLGAPTGAGKTEVFMAPLLASFASKRPIAARGFLVEPMHSLIKAMVDRLKTSIETLGVSEDHGETVQPTFLYTAPITVTTPDTYFYGFAASRVYRILTHEGVETGRFSMPVGLQATSYTVFDEAHLVQDEVFLSPRLLSLVVAALARAGGLIVVSSATLPSYYKTVIREKLGDWRVEEV”, the “soluble on expression in E. coli” value is listed as “not soluble”.

As to “MSLSDLSAFAVTQKWPAQFPEWIQLYSLPTPNGVKVSVMLEEIGLPYEAHRVSFETQDQMTPEFLSVSPNNKIPAILDPHGPGDQPLALFESGAILIYLADKSGQLLAQESAARYETIQWLMFQMGGIGPMFGQVGFFNKFAGREYEDKRPLERYVNEAKRLLGVLDKHLGGREWIMGERYTIADIATFPWIRNLIGFYEAGELVGIDNFPEVKRVLAKFVARPAVIRGLEIPKVSEGHHHHHH”, the “soluble on expression in E. coli” value is listed as “soluble”.

As for “MRSIPLCQLLLLLTILSIDARPSDHFLSFSKTELCAAEPHLKVCQPNSRAQSSKIINGDGLTAERLEQLSKHSNKGFIEEEANSGRSSAASNVDDPFEDVATRAPPSSNEYEEERYSHRKHKHHHRKSHRGHHYGSPYQQYYQQQQHHDPLTYRVYPGLHPKDGRYCSDMKGMFAYTCAPSKPLRIDLVEFCKDYAAFCNVPNFHRLPGPRMGPPLTDKGVGHVDVNGHFGFGVGAVPGLEVGVGWGVDVGPIPGMGESVGVGVGLDLGIMGSKTPEAFRRGQDDPNAKGGGIVGINGGVGVKAPGTGDGVGVGTGLGVGK”, the “soluble on expression in E. coli” value is given as “not soluble”.

On to “MNRLSIFVDGNNMFYAQQKNGWFFDPRRVLEYFKHEQSETTLINAFWYTGLKDPQDQRGFRDALISLGYTVRTKILKEYYDDTSGRYSQKANLDIEIVVDMFNTVDQYDRVVLFSGDGDFERAIELLRSKNTHITVVSTEGMIARELRNATDRYIDLNDIRDQIEKT”, for which the “soluble on expression in E. coli” value is on record as “not soluble”. As for “MKIGLFYGSSTCYTEMTAEKIRAILGEELVDIHNVKESPLTLMSDYDLLLLGISTWDFGEIQEDWSAVWDHIGGVSLKNKYVALFGLGDQEGYGEWYLDAMGLLHDQIKKSGANLLGYWPNQGYHFEASKALTEDGSHFVGLALDEDSQYDLSDERIATWVEQVLTEYHDAI”, the “soluble on expression in E. coli” value is reported as “not soluble”. For “MGFPIPDPYVWDPSFRTFYSIIDDEHKTLFNGIFHLAIDDNADNLGELRRCTGKHFLNEQVLMQASQYQFYDEHKKEHETFIHALDNWKGDVKWAKSWYVNHIKTIDFKYKGKI”, the “soluble on expression in E. coli” value is “soluble”. On to “MQKVHVQYIDGETDQMLRQDDLDGYTDETIPYSTAEGIKKFEGDGYELFKDNFPAGEKFDNDDTNDQFYTVIFKHHRENVDPNHSSADGTKGTKTLTETVHYKYANGTKAAEDQTAQVTFTRNGVLDDVTGIVAWGKWNEASQSYKALTSPTIAGYAPSEAVVKRSSNSDAEQGPTLTVIYTADA”, for which the “soluble on expression in E. coli” value was “soluble”. As for “MGSDKIHHHHHHMILSVSRRTDIPAFYSEWFFNRLKEGFVYVINPFNERKVSKVELNKETVDLFVFWTKDAEPMLKRLDELNEFKYYFQFTITSYRNDVERMTRKKKDIIDTFRILSKKIGKEKIIWRYDPIFLNDFYTKEYHYRWFERFCDKLEGYTDKCIISFLDLYKKTEINTRCLNIHKMDEKSMRQVAKQLSIIANKHNIIIETCSEGIDLSDYGIKKGSCIDKNLISKIIDFGVELKKDNNQRELCGCVKSVDIGQYNTCKHHCLYCYANFNEKLLNDSILKYNPKAPTLAYTLKGDEKITVREMESIKGNKQKQLDLFKNIKQGE”, the entry is “not soluble”; as for “MEELVGLLRIRVKRGINLAQRDTLSSDPFVVITMGSQKLKTRVVENNCNPEWNEELTLALRHPDEPVNLIVYDKDTFTSHDKMGDAKIDIKPFLEVHKMGLQELPDGTEIKRVVPNRENCLAEASSIVSNNGKIVQNMILLLRNVECGEVEIQLEWIDIPGSRGL”, “not soluble”; as for “AHHHHHHGSVERKKWSENFSEWFNEVIEEAGILDKRYPVKGMNVWLPYGLKIMKNIEKFIHEEMERTDHQEVLFPALIPETEFQKEAEHIAGFEGEVFWVTHAGHEPLDVRLVLRPTSETAMYSMFALWIRSHADLPFKVYQIVNVYRYETKHTRPLIRVREISRFFEAHTAHADFEDAERQIKEDLEIFDNLMKKLAIAYVISKRPEWDKFPGAYYSLGAEVVMPDGRTLQIGTMHNYKQNFAKAYNILYEKEDGTHDYVHQTTFGMSERLLAAVIAIHGDDRGMVLPPTIAPIQVVIVPIPKKGSEEEVYSYAREIEEELKLAGIRVHLDLRDKRPGWKFYDWELKGVPVRIEVGPRDAAEKTVVLARRDKLEKITVSREELVDKVRELFDDIMQYLYERAKEWLESHIKRVDTIEEAKELFNDRRGIVEIPWCGEEECGLKMEEELEAKMLGIPYPEESARVEGKKCPVCGREAKFIARFARTY”, “not soluble”. As for “MNLSLHYNLDNRNAMKPHTLVKRSSSQVTDQAVEVIHERIQQGFYPVGSALPSQRELSAELGISRASLREALTRLAALGLLNIMAGKGAYVTAIESQPVEQWNIQFKISLKDFYQLRYILEGFSALLACEYISENDLVQLNTHFEQLESAIQQHNWQEAAENDFAFHRHIIDLSHNQSIIQSLKKQTEWMKQSQILPFVQPNLAYKTIQEHEQILQALIKRDGLMAEKAMRQHIIGAAQRAGVYFSSHS”, the entry is “not soluble”; as for “MAHHHHHHMCLGRSSGSALDTPLGAWWGGKRVAEIPPCPAESVTFVQLIARHFSPFVLRQHLPGAQDGLVTSSVQTREVAHKPVGCDVAVLVVVKRGAQVLRLPFARPHAKIPQKINKKLVRHALLTTRPLLLLQLKELSQCLNDRLWAAPTTQGALHTQKHAILARVVRVTPQHRRHRTTKAKQQQQQKQRNCSLVKSAHKT”, “not soluble”.
